Assay type in all cases: cell-based
One experiment deals with RAJI-CD19-KO cells. The experiment can be described thus: JNG assay, co-culture with RAJI-CD19-KO cells. As to conditions: co-culture with Raji-CD19-KO. Here is the method: Cellular supernatant is collected and assayed for the induction of cytokines (e.g., IL2).
JNG (Jurkat cells expressing EGFP under an NFAT promoter) were infected with lentiviral vectors encoding different single chain and multi-chain SARs by spinfection in the presence of 8 µg/ml of Polybrene® (Sigma, Catalog no. H9268). The Jurkat-NFAT-GFP cells are engineered in such a way that the IL-2 promoter, which carries NFAT binding sites, is cloned upstream of the GFP gene. These cells have been used to study signaling via TCR and CAR. The different SARs were stably expressed in Jurkat NFAT-GFP cells by lentiviral mediated gene transfer, followed by selection with puromycin or blasticidin. No drug selection was used in case the construct lacked an antibiotic resistance gene. The SAR-expressing Jurkat-NFAT-GFP cells were cocultured with the target cells at E:T ratio of approximately 1:2 for approximately 4 hours to 18 hours. When the interaction between SIRs and their target antigen results in activation of the NFAT pathway, GFP expression is induced. […] GFP expression was monitored by FACS analysis. The Jurkat-NFAT-GFP (parental) cells were used as control. The structure of different constructs can be determined based on their names. […] The sequence of the other constructs in the table can be similarly determined from their names and by referring to the different Tables of this disclosure that provide the names and SEQ ID NO of the different modules. Alternatively, the composition and modular architecture of the different SAR constructs can be determined from their sequences by bioinformatics tools, including using nucleic acid and amino acids homology searches. A SAR is considered positive in the assay in case the SAR expressing Jurkat-NFAT-GFP cells show greater % GFP positive cells when cultured with the target cell line as compared to parental Jurkat-NFAT-GFP cells. […] In general, the number +/-, +, 2+, 3+, 4+, 5+ refer to approximately 5%, 10%, 20%, 30%, 40% and 50% GFP positive cells. The % of GFP induction in the above assay is dependent not only the relative strength of the SAR but also, among other factors, on the relative level of expression of the SAR in the JNG cells and the relative level of expression of the target antigen in the target cell line. To control for the difference in gene transduction efficiency of the different SAR constructs, the experiment was conducted with JNG cells transduced with SAR constructs co-expressing a drug resistance gene (e.g., puromycin or PAC) followed by drug selection to generate a stable population of SAR-expressing cells. It is to be noted that the drug resistance gene (e.g., PAC) in the SAR constructs is optional and in vivo studies were conducted with SAR constructs lacking the PAC gene.

Another experiment deals with RAJI cells. Put plainly: JNG assay, co-culture with RAJI cells. As to conditions: JNG cells expressing construct, co-culture with Raji. A digest of the protocol: (§1)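 Jurkat-NFAT-GFP (JNG) cells stably expressing SAR constructs via lentiviral transduction and puromycin/blasticidin selection were cocultured with target cells at E:T ~1:2 for ~4–18 h. NFAT-driven GFP was measured by FACS versus parental JNG cells; scores +/- to 5+ denote ~5–50% GFP-positive cells.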

The subject of a further experiment is L363 cells. The experiment can be described thus: JNG assay, co-culture with L363 cells. Conditions: co-culture with L363. A digest of the protocol:
as §1

In another experiment the test system is Nalm6 cells. Put plainly: JNG assay, co-culture with Nalm6 cells. Conditions: co-culture with Nalm6. A digest of the protocol:
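Jurkat NFAT-GFP reporter cells stably expressing lentivirally transduced SARs, drug-selected where possible, were co-cultured with target cells at E:T ≈1:2 for ~4–18 h. GFP measured by FACS; scored +/- to 5+ (~5–50% GFP+ cells) above parental reporter cells.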

B1: 22112 (protein)
chain: MALPVTALLLPLALLLHAARPDIQMTQSPSSLSASVGDRVTITCKASDHINNWLAWYQQKPGQAPKLLIYGATTLETGVPSRFSGSGSGTDYTLTISSLQPEDFATYYCQQSWNTPWTFGQGTKLEIKRLEDLKNVFPPEVAVFEPSEAEISHTQKATLVCLATGFYPDHVELSWWVNGKEVHSGVCTDPQPLKEQPALNDSRYCLSSRLRVSATFWQNPRNHFRCQVQFYGLSENDEWTQDRAKPVTQIVSAEAWGRADCGFTSESYQQGVLSATILYEILLGKATLYAVLVSALVLMAMVKRKDSRGRAKRSGSGATNFSLLKQAGDVEENPGPTSATMDWIWRILFLVGAATGAHSGPEVQLVESGGGLVQAGGSLRLSCAASGRTFTMGWFRQAPGKEREFVAAISLSPTLAYYADSVKGRFTISRDNAKNTVVLQMNSLKPEDTALYYCAADRKSVMSIRPDYWGQGTQVTVSSGSGGGGSGGGGSGGGGSFEQVQLQQPGAELVKPGASVKMSCKASGYAFSSYWINWMKQKPGQGLEWIGQIYPGDGDTNYNGKFKGRATLTADTSSSTAYMQLSSLTSEDSAVYFCARSITTVVGCAMDYWGQGTSVTVSSTRIQNPDPAVYQLRDSKSSDKSVCLFTDFDSQTNVSQSKDSDVYITDKCVLDMRSMDFKSNSAVAWSNKSDFACANAFNNSIIPEDTFFPSPESSCDVKLVEKSFETDTNLNFQNLSVIGFRILLLKVAGFNLLMTLRLWSSRAKRSGSGVKQTLNFDLLKLAGDVESNPGPSRGHMTEYKPTVRLATRDDVPRAVRTLAAAFADYPATRHTVDPDRHIERVTELQELFLTRVGLDIGKVWVADDGAAVAVWTTPESVEAGAVFAEIGPRMAELSGSRLAAQQQMEGLLAPHRPKEPAWFLATVGVSPDHQGKGLGSAVVLPGVEAAERAGVPAFLETSAPRNLPFYERLGFTVTADVEVPEGPRTWCMTRKPGA
As to B1, the “NFAT-GFP ASSAY: Raji-CD19-KO” value in the experiment on RAJI-CD19-KO cells was 5+ (refer to approximately 5%, 10%, 20%, 30%, 40% and 50% GFP positive cells).

B2: 22133 (protein)
chain: MALPVTALLLPLALLLHAARPEVQLVESGGGLVQPGGSLRLSCAASGFSFSDFWMSWVRQAPGKGLEWVATISQAGSEKDYVDSVKGRFTISRDNAKKSLYLQMNSLRAEDTAVYYCASGVYSFDYRGQGTLVTVSSGTGGGGSGGGGSGGGGSEFDIQMTQSPSSLSASVGDRVTITCKASDHINNWLAWYQQKPGQAPKLLIYGATTLETGVPSRFSGSGSGTDYTLTISSLQPEDFATYYCQQSWNTPWTFGQGTKLEIKRLEDLKNVFPPEVAVFEPSKAEIAHTQKATLVCLATGFYPDHVELSWWVNGKEVHSGVCTDPQPLKEQPALNDSRYCLSSRLRVSATFWQNPRNHFRCQVQFYGLSENDEWTQDRAKPVTQIVSAEAWGRADCGITSASYHQGVLSATILYEILLGKATLYAVLVSALVLMAMVKRKDSRGRAKRSGSGATNFSLLKQAGDVEENPGPTSATMDWIWRILFLVGAATGAHSGPQVQLQESGGGLAQAGGSLRLSCAASGRTFSMGWFRQAPGKEREFVAAITYSGGSPYYASSVRGRFTISRDNAKNTVYLQMNSLKPEDTAVYYCAANPTYGSDWNAENWGQGTQVTVSSGSGGGGSGGGGSGGGGSFEQVQLQQPGAELVKPGASVKMSCKASGYAFSSYWINWMKQKPGQGLEWIGQIYPGDGDTNYNGKFKGRATLTADTSSSTAYMQLSSLTSEDSAVYFCARSITTVVGCAMDYWGQGTSVTVSSTRIQNPDPAVYQLRDSKSSDKSVCLFTDFDSQTNVSQSKDSDVYITDKCVLDMRSMDFKSNSAVAWSNKSDFACANAFNNSIIPEDTFFPSSDVPCDVKLVEKSFETDTNLNFQNLSVIGFRILLLKVAGFNLLMTLRLWSSRAKRSGSGVKQTLNFDLLKLAGDVESNPGPSRGHMTEYKPTVRLATRDDVPRAVRTLAAAFADYPATRHTVDPDRHIERVTELQELFLTRVGLDIGKVWVADDGAAVAVWTTPESVEAGAVFAEIGPRMAELSGSRLAAQQQMEGLLAPHRPKEPAWFLATVGVSPDHQGKGLGSAVVLPGVEAAERAGVPAFLETSAPRNLPFYERLGFTVTADVEVPEGPRTWCMTRKPGA
Turning to B2, in the experiment with RAJI-CD19-KO cells, the “NFAT-GFP ASSAY: Raji-CD19-KO” value is 5+ (refer to approximately 5%, 10%, 20%, 30%, 40% and 50% GFP positive cells).

B3: 22072 (protein)
chain: MALPVTALLLPLALLLHAARPQLQLQESGPGLVKPSETLSLTCTVSGDSISSGDYYWGWIRQPPGKGLEWIGHIYYSGVTYYNPSLKSRVTISVDTSRNQFSLKLSSVTAADTAVYYCTREDSSNWRSRGQGTLVTVSSLEGQPKANPTVTLFPPSSEELQANKATLVCLISDFYPGAVTVAWKADGSPVKAGVETTKPSKQSNNKYAASSYLSLTPEQWKSHRSYSCQVTHEGSTVEKTVAPTECSPIKTDVITMDPKDNCSKDANDTLLLQLTNTSAYYMYLLLLLKSVVYFAIITCCLLRRTAFCCNGEKSRAKRSGSGATNFSLLKQAGDVEENPGPTSMDWIWRILFLVGAATGAHSFEVQLLESGGGLIQPGGSLRLSCAASGFTFSSHAMTWVRQAPGKGLEWVSAISGSGDYTHYADSVKGRFTISRDNSKNTVYLQMNSLRAEDSAVYYCAKDEDGGSLLGHRGQGTLVTVSSTRIQNPDPAVYQLRDSKSSDKSVCLFTDFDSQTNVSQSKDSDVYITDKCVLDMRSMDFKSNSAVAWSNKSDFACANAFNNSIIPEDTFFPSPESSCDVKLVEKSFETDTNLNFQNLSVIGFRILLLKVAGFNLLMTLRLWSSRAKRSGSGVKQTLNFDLLKLAGDVESNPGPSRGHMTEYKPTVRLATRDDVPRAVRTLAAAFADYPATRHTVDPDRHIERVTELQELFLTRVGLDIGKVWVADDGAAVAVWTTPESVEAGAVFAEIGPRMAELSGSRLAAQQQMEGLLAPHRPKEPAWFLATVGVSPDHQGKGLGSAVVLPGVEAAERAGVPAFLETSAPRNLPFYERLGFTVTADVEVPEGPRTWCMTRKPGA
Regarding B3, in the experiment on RAJI cells, the “NFAT-GFP ASSAY: Raji” value was “+ (refer to approximately 5%, 10%, 20%, 30%, 40% and 50% GFP positive cells)”. For the same molecule, the “NFAT-GFP ASSAY: L363” value in the experiment with L363 cells is “+ (refer to approximately 5%, 10%, 20%, 30%, 40% and 50% GFP positive cells)”. Also, the “NFAT-GFP ASSAY: Nalm6” value with Nalm6 cells was “+/- (refer to approximately 5%, 10%, 20%, 30%, 40% and 50% GFP positive cells)”.

B4: 22154 (protein)
chain: MALPVTALLLPLALLLHAARPACEVQLLESGGGLIQPGGSLRLSCAASGFTFSSHAMTWVRQAPGKGLEWVSAISGSGDYTHYADSVKGRFTISRDNSKNTVYLQMNSLRAEDSAVYYCAKDEDGGSLLGHRGQGTLVTVSSGTGGGGSGGGGSGGGGSEFSYVLTQPPSVSVAPGQTARITCGGNNIGGKSVHWYQQPPGQAPVVVVYDDSDRPSGIPERFSGSNSGNTATLTISRVEAGDEAVYYCQVWDSSSDHVVFGGGTKLTVLLEGQPKANPTVTLFPPSSEELQANKATLVCLISDFYPGAVTVAWKADGSPVKAGVETTKPSKQSNNKYAASSYLSLTPEQWKSHRSYSCQVTHEGSTVEKTVAPTECSGRADCGFTSESYQQGVLSATILYEILLGKATLYAVLVSALVLMAMVKRKDSRGRAKRSGSGATNFSLLKQAGDVEENPGPTSATMDWIWRILFLVGAATGAHSGPQVQLQESGGGLAQAGGSLRLSCAASGRTFSMGWFRQAPGKEREFVAAITYSGGSPYYASSVRGRFTISRDNAKNTVYLQMNSLKPEDTAVYYCAANPTYGSDWNAENWGQGTQVTVSSGSGGGGSGGGGSGGGGSFEQLQLQESGPGLVKPSETLSLTCTVSGGSISSSSYFWGWIRQPPGKGLEWIGSIYYSGITYYNPSLKSRVTISVDTSKNQFSLKLSSVTAADTAVYYCARHDGAVAGLFDYWGQGTLVTVSSATRASTKGPSVFPLAPSSKSTSGGTAALGCLVKDYFPEPVTVSWNSGALTSGVHTFPAVLQSSGLYSLSSVVTVPSSSLGTQTYICNVNHKPSNTKVDKRVEPKSCIPEDTFFPSPESSCDVKLVEKSFETDTNLNFQNLSVIGFRILLLKVAGFNLLMTLRLWSSRAKRSGSGVKQTLNFDLLKLAGDVESNPGPSRGHMTEYKPTVRLATRDDVPRAVRTLAAAFADYPATRHTVDPDRHIERVTELQELFLTRVGLDIGKVWVADDGAAVAVWTTPESVEAGAVFAEIGPRMAELSGSRLAAQQQMEGLLAPHRPKEPAWFLATVGVSPDHQGKGLGSAVVLPGVEAAERAGVPAFLETSAPRNLPFYERLGFTVTADVEVPEGPRTWCMTRKPGA
With B4, the “NFAT-GFP ASSAY: Raji” value with RAJI cells was 4+ (refer to approximately 5%, 10%, 20%, 30%, 40% and 50% GFP positive cells). Moreover, the “NFAT-GFP ASSAY: L363” value with L363 cells is 2+ (refer to approximately 5%, 10%, 20%, 30%, 40% and 50% GFP positive cells). Also, the “NFAT-GFP ASSAY: Nalm6” value in the experiment on Nalm6 cells is “+ (refer to approximately 5%, 10%, 20%, 30%, 40% and 50% GFP positive cells)”.

Values taken from patent publication US20230212319A1, “NOVEL ANTIGEN BINDING DOMAINS AND SYNTHETIC ANTIGEN RECEPTORS INCORPORATING THE SAME” (University of Southern California, priority 2020, published 2023).
